Measurements published in IntAct's records for PubMed 31515488.

B1: Keratin, type I cytoskeletal 20 (Homo sapiens), P35900 (parent)
chain: MDFSRRSFHRSLSSSLQAPVVSTVGMQRLGTTPSVYGGAGGRGIRISNSRHTVNYGSDLTGGGDLFVGNEKMAMQNLNDRLASYLEKVRTLEQSNSKLEVQIKQWYETNAPRAGRDYSAYYRQIEELRSQIKDAQLQNARCVLQIDNAKLAAEDFRLKYETERGIRLTVEADLQGLNKVFDDLTLHKTDLEIQIEELNKDLALLKKEHQEEVDGLHKHLGNTVNVEVDAAPGLNLGVIMNEMRQKYEVMAQKNLQEAKEQFERQTAVLQQQVTVNTEELKGTEVQLTELRRTSQSLEIELQSHLSMKESLEHTLEETKARYSSQLANLQSLLSSLEAQLMQIRSNMERQNNEYHILLDIKTRLEQEIATYRRLLEGEDVKTTEYQLSTLEERDIKKTRKIKTVVQEVVDGKVVSSEVKEVEENI
partner: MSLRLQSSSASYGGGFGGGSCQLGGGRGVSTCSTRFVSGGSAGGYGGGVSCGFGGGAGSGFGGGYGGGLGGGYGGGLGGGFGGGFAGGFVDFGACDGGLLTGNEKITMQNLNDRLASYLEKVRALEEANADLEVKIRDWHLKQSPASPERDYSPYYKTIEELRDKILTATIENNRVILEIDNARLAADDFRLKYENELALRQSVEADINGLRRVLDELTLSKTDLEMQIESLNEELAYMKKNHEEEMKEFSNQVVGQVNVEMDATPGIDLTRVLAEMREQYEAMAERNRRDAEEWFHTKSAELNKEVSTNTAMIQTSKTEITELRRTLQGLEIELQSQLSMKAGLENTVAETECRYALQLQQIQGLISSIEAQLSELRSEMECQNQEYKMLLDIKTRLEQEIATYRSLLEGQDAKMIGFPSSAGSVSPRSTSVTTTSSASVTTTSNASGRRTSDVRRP
B2: Mediator of RNA polymerase II transcription subunit 20 (Homo sapiens), Q9H944 (parent)
chain: MGVTCVSQMPVAEGKSVQQTVELLTRKLEMLGAEKQGTFCVDCETYHTAASTLGSQGQTGKLMYVMHNSEYPLSCFALFENGPCLIADTNFDVLMVKLKGFFQSAKASKIETRGTRYQYCDFLVKVGTVTMGPSARGISVEVEYGPCVVASDCWSLLLEFLQSFLGSHTPGAPAVFGNRHDAVYGPADTMVQYMELFNKIRKQQQVPVAGIR
partner: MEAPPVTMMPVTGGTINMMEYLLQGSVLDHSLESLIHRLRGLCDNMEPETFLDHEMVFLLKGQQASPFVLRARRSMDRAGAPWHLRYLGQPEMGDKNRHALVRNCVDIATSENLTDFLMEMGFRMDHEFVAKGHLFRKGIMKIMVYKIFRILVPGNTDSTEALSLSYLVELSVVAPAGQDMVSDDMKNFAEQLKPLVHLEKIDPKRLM
B3: Kelch-like protein 2 (Homo sapiens), O95198 (parent)
chain: METPPLPPACTKQGHQKPLDSKDDNTEKHCPVTVNPWHMKKAFKVMNELRSQNLLCDVTIVAEDMEISAHRVVLAACSPYFHAMFTGEMSESRAKRVRIKEVDGWTLRMLIDYVYTAEIQVTEENVQVLLPAAGLLQLQDVKKTCCEFLESQLHPVNCLGIRAFADMHACTDLLNKANTYAEQHFADVVLSEEFLNLGIEQVCSLISSDKLTISSEEKVFEAVIAWVNHDKDVRQEFMARLMEHVRLPLLPREYLVQRVEEEALVKNSSACKDYLIEAMKYHLLPTEQRILMKSVRTRLRTPMNLPKLMVVVGGQAPKAIRSVECYDFKEERWHQVAELPSRRCRAGMVYMAGLVFAVGGFNGSLRVRTVDSYDPVKDQWTSVANMRDRRSTLGAAVLNGLLYAVGGFDGSTGLSSVEAYNIKSNEWFHVAPMNTRRSSVGVGVVGGLLYAVGGYDGASRQCLSTVECYNATTNEWTYIAEMSTRRSGAGVGVLNNLLYAVGGHDGPLVRKSVEVYDPTTNAWRQVADMNMCRRNAGVCAVNGLLYVVGGDDGSCNLASVEYYNPTTDKWTVVSSCMSTGRSYAGVTVIDKPL
B4: Vesicle transport through interaction with t-SNAREs homolog 1B (Homo sapiens), Q9UEU0 (parent)
chain: MASSAASSEHFEKLHEIFRGLHEDLQGVPERLLGTAGTEEKKKLIRDFDEKQQEANETLAEMEEELRYAPLSFRNPMMSKLRNYRKDLAKLHREVRSTPLTATPGGRGDMKYGIYAVENEHMNRLQSQRAMLLQGTESLNRATQSIERSHRIATETDQIGSEIIEELGEQRDQLERTKSRLVNTSENLSKSRKILRSMSRKVTTNKLLLSIIILLELAILGGLVYYKFFRSH
partner: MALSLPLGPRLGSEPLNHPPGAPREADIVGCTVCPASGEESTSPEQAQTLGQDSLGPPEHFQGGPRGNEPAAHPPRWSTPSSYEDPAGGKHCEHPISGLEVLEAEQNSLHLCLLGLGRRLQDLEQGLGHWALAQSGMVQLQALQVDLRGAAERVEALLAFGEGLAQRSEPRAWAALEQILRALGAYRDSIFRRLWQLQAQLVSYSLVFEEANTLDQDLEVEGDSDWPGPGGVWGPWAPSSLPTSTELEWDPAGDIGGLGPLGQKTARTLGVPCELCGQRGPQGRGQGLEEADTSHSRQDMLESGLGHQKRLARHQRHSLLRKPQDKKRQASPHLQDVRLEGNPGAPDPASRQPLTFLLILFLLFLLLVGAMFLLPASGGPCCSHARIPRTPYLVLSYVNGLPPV
B5: Kappa-casein (Homo sapiens), P07498 (parent)
chain: MKSFLLVVNALALTLPFLAVEVQNQKQPACHENDERPFYQKTAPYVPMYYVPNSYPYYGTNLYQRRPAIAINNPYVPRTYYANPAVVRPHAQIPQRQYLPNSHPPTVVRRPNLHPSFIAIPPKKIQDKIIIPTINTIATVEPTPAPATEPTVDSVVTPEAFSESIITSTPETTTVAVTPPTA

Variants of: B1
Conditions: with KRT13, P13646

Variant	effect of a mutation on the interaction
S309Y	with no effect

Variants of: B2
Conditions: with med18_human MED18, Q9BUE0

Variant	effect of a mutation on the interaction
A50T	with no effect

Variants of: B3
Conditions: with txd12_human TXNDC12, O95881
txd12_human TXNDC12, O95881, sequence (O95881 whole entry): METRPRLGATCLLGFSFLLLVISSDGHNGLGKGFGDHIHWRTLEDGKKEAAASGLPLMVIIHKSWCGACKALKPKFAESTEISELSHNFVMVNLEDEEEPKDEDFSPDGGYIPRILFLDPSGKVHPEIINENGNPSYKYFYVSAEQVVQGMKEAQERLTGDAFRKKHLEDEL

Variant	effect of a mutation on the interaction
S68A	with no effect
A480T	with no effect

Variants of: B3
Conditions: with tma16_human TMA16, Q96EY4

Variant	effect of a mutation on the interaction
S68A	with no effect
A480T	with no effect

Variants of: B3
Conditions: with cul3_human CUL3, Q13618

Variant	effect of a mutation on the interaction
V156I	with no effect

Variants of: B3
Conditions: with zn114_human ZNF114, Q8NC26
zn114_human ZNF114, Q8NC26, sequence (Q8NC26 whole entry): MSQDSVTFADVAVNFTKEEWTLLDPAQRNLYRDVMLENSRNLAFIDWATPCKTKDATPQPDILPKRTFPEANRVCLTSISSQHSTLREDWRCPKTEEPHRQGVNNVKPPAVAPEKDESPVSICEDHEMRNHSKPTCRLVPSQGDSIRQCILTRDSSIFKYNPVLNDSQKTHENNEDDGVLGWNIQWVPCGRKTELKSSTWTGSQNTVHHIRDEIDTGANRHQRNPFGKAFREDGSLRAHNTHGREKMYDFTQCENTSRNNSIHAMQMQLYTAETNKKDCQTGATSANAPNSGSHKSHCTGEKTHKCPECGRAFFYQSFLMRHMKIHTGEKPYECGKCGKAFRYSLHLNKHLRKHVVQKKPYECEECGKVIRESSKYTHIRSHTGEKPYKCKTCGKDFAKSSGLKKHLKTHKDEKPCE

Variant	effect of a mutation on the interaction
V156I	with no effect

Variants of: B4
Conditions: with syne4_human SYNE4, Q8N205

Variant	effect of a mutation on the interaction
R176H	with no effect
R124Q	with no effect

Variants of: B5
Conditions: with rbpms_human RBPMS

Variant	effect of a mutation on the interaction
R96L	with no effect

Variants of: B5
Conditions: with dmrtb_human DMRTB1, Q96MA1
dmrtb_human DMRTB1, Q96MA1, sequence (Q96MA1 whole entry): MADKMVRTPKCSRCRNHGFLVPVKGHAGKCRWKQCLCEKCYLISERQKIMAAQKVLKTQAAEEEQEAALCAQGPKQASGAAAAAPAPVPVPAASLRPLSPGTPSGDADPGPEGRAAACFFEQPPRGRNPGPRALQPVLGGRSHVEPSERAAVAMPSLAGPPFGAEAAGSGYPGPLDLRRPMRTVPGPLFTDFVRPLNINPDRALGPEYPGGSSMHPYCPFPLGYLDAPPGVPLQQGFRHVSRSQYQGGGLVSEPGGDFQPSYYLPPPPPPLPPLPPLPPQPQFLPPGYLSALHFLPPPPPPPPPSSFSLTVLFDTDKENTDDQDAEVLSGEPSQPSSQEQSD

Variant	effect of a mutation on the interaction
R96L	with no effect
A145T	with no effect
